Laboratory results from paper PMC4540782, “Latent and active aurone synthase from petals of C. grandiflora: a polyphenol oxidase with unique characteristics” (Planta, 2015).

What was measured:
[1] = test system: T1, O=C(/C=C/c1ccc(O)c(O)c1)c1ccc(O)cc1O; assay: purified protein; type: biochemical, Coreopsis grandiflora; details: pH 5.5, diphenolase, butein to sulfuretin
T1 construct: main core API-IENSKE plus disulfide-linked C-terminal peptide D438-G452; partly phosphorylated or sulfated at Tyr230

Cc1ccc(O)c(O)c1 = test system: T2, Cc1ccc(O)c(O)c1; assay: purified protein; type: biochemical, Coreopsis grandiflora; details: pH 5.5, suicide substrate
T2 construct: main core API-IENSKE plus disulfide-linked C-terminal peptide D438-G452; partly phosphorylated or sulfated at Tyr230

Oc1ccccc1O = test system: T3, Oc1ccccc1O; assay: purified protein; type: biochemical, Coreopsis grandiflora; details: pH 5.5
T3 construct: main core API-IENSKE plus disulfide-linked C-terminal peptide D438-G452; partly phosphorylated or sulfated at Tyr230

CC(C)(C)c1ccc(O)c(O)c1 = test system: T4, CC(C)(C)c1ccc(O)c(O)c1; assay: purified protein; type: biochemical, Coreopsis grandiflora; details: pH 5.5, suicide substrate
T4 construct: main core API-IENSKE plus disulfide-linked C-terminal peptide D438-G452; partly phosphorylated or sulfated at Tyr230

[2] = target: T5, latent recombinant cgAUS1 (pro-cgAUS1) (Coreopsis grandiflora, UniProt A0A075DN54); assay: spectrophotometric pH profile; type: biochemical; details: 25 µM butein, 125 mM sodium citrate, pH 3.5 to 7.4; no allosteric activation
T5 construct: heterologously expressed latent pro-enzyme with C-terminal shielding domain
T5 sequence (A0A075DN54 86-602): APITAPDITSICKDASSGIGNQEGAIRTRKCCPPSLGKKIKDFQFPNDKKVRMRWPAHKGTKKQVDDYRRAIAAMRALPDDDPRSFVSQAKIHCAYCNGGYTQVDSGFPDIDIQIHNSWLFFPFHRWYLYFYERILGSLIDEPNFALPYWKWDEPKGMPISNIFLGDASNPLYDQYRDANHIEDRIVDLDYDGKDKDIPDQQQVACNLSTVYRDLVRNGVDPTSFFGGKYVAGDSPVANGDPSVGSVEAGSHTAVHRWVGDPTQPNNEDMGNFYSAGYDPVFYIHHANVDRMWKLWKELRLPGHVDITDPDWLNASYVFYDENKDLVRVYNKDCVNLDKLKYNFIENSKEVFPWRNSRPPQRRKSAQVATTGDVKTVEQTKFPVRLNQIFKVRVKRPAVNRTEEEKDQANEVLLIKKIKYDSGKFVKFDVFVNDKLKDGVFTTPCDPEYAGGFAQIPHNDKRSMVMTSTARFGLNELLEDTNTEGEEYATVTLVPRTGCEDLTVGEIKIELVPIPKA

Compound	Km [1]	Vmax [1]	kcat [1]	kcat/Km [1]	Km (Cc1ccc(O)c(O)c1)	Vmax (Cc1ccc(O)c(O)c1)	kcat (Cc1ccc(O)c(O)c1)	kcat/Km (Cc1ccc(O)c(O)c1)	Km (Oc1ccccc1O)	kcat (Oc1ccccc1O)	kcat/Km (Oc1ccccc1O)	Km (CC(C)(C)c1ccc(O)c(O)c1)	Vmax (CC(C)(C)c1ccc(O)c(O)c1)	kcat (CC(C)(C)c1ccc(O)c(O)c1)	spectrophotometric pH profile [2]
active cgAUS1 (aurone synthase), sample 1 (Coreopsis grandiflora; DEL436-522)	52 ± 3 µM	489 µmol/min/mg	464 ± 16 s⁻¹	8.93e+06 ± 649000 M⁻¹ s⁻¹	3110 ± 120 µM	2300 ± 39 µmol/min/mg	1590 ± 27 s⁻¹	512000 ± 22000 M⁻¹ s⁻¹	4040 ± 690 µM	869 ± 41 s⁻¹	215000 ± 38000 M⁻¹ s⁻¹	504 ± 20 µM	2260 ± 23 µmol/min/mg	1560 ± 16 s⁻¹	–
O=C(/C=C/c1ccc(O)c(O)c1)c1ccc(O)cc1O [Butein]	–	–	–	–	–	–	–	–	–	–	–	–	–	–	pH optimum of recombinant pro-cgAUS1 (filled triangle, dashed lines) and active cgAUS1
